Data: the supplement of paper PMC9170038

System: MS2 coat protein
Assay: apparent KD of MS2 coat protein; designed switch direction (-1 OFF switch, 1 ON switch): -1; higher = weaker reporter binding
Method in brief: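 On Illumina chips, designed RNA switches with common flanks were made by stalled E. coli RNA polymerase. Titrations with SNAP-549-labelled MS2 coat protein, doubling from 0.7 or 1.5 nM to 3 µM, were done with no input, with 200 uM small-molecule ligand, or with an oligonucleotide input. Apparent KD is the median per design over clusters, from curve fits of normalised cluster fluorescence.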

[1] = Eterna round: R95, input ligand: FMN 200 uM
[2] = Eterna round: R95, input ligand: microRNA oligo, concentration not stated
[3] = Eterna round: R95, input ligand: none
[4] = input ligand: microRNA oligo, concentration not stated

Row | Sequence | apparent KD of MS2 coat protein [1] [nM] | apparent KD of MS2 coat protein [2] [nM] | apparent KD of MS2 coat protein [3] [nM] | apparent KD of MS2 coat protein (input ligand: FMN 200 uM) [nM] | apparent KD of MS2 coat protein (input ligand: none) [nM] | apparent KD of MS2 coat protein [4] [nM]
1 | GAUUAUGCGAGCUUUAGGGACAUGAGGAUCACCCAUGUUCGUCUUAUUAGUCUAGGUACGCUGACAUACCUAAAUCU [JMF 100] (puzzle: Sensor v3, turn-off variant 1) | 21.8 | 32.9 | 21.6 | – | – | –
2 | CCCGUGUUAGGAUAUACGGCACACCCACAAACGGGUAUAUAGUAGAAGGAACAUGAGGAUCACCCAUGUAAAAC [Qubexeer] (puzzle: Exclusion 4) | – | 18.5 | – | – | – | –
3 | AGCUAGAUAGGAUAUGCCCGGGAUAACAUGAGGAUCACCCAUGUGACCGAAUCAAAUCCAGCAGAAGGGUUUGGGA [Mod of ViennaUCT 13 - Jieux - Exclusion 5] (Eterna round: R97, puzzle: Exclusion 5) | – | – | – | 22 | 18.6 | –
4 | AAUUAUUGAUGAGGAUAUUGUGGUGAAACACGACGAGAAGGCAUUUGUCACAUGAGGAUCACCCAUGUGAGCCUUGUGCAUAUA [Ex NG1 #63] (Eterna round: R96, puzzle: Exclusion NG 1) | – | – | – | 25.2 | 15.1 | 18.7
5 | GUCAGCUCGUCAGGAUAUAUAUACAUGAGGAUCACCCAUGUAAGAUCAGCACUUCGGUGCAGUAUAUAGAAGGGACGAGCUGAC [ENG2/13-B1] (Eterna round: R96, puzzle: Exclusion NG 2) | – | – | – | 40.6 | 29.1 | 13.7
6 | UUGCGGAGAGGAUAUACAUAGGCGGAUUGGUAGACUCAAAUACAUGAGGAUCACCCAUGUAGAAGGCUUGAUCA [Eternabot (L2) Solution 22] (Eterna round: R97, puzzle: Exclusion 2) | – | – | – | 144 | 50.4 | –
7 | CCGGAUAUGCAGGAUAUCGUAUCGGAGACGAUACGAGAAGGGUAUACAUGAGGAUCACCCAUGUGUCCUACCGG [Mat - Exclusion 6 - Eli Mod - D84] (puzzle: Exclusion 6) | – | 22.2 | – | – | – | –
8 | UACCGGCGGACCGAGGCUUUUUGCUCGUCUUAUGCUACGACAUGAGGAUCACCCAUGUGGUGGUGGUCCGUUGUAGU [JL ViennaUCT Bitein mod 7] (puzzle: Sensor v3, turn-off variant 2) | 106 | 13.3 | 122 | – | – | –
9 | AUUGUUUGAUACCUCUAAUACAUGAGGAUCACCCAUGUUAUCGAGGAUAUGCAUUAGAGUGGAUAGCAGAAGGCGAAGUAAUUG [JR_ExcNG3_Sub029] (Eterna round: R96, puzzle: Exclusion NG 3) | – | – | – | 13.7 | 16.5 | 13.4
10 | CCGGAAAGGGAGGAUAUAGGAGUCGAUAGACACCUAGAAGGCCUGACAUGAGGAUCACCCAUGUGUCCUACCGG [Fiskers Ex 6 - 91] (puzzle: Exclusion 6) | – | 13.7 | – | – | – | –
11 | GGUUGACAUGAGGAUCACCCAUGUGAGGAUAUGCGAGAGAAAAAAGUGAGGAAGUUUUGCAGAAGGCGCUGUCG [salish99-ex1_r3_007] (puzzle: Exclusion 1) | 43.5 | 87.5 | 56 | – | – | –
12 | ACAUGAGGAUCACCCAUGUGACAAGAAUGGCUGAUACAGAGACAGGAUAUAGGUGCAUAUCUAACCUAGAAGGGUCAUGACUGG [Deportation 73 - Jieux - Exclusion NG 3] (Eterna round: R96, puzzle: Exclusion NG 3) | – | – | – | – | – | 26.6
13 | AACAGUCUAGAGGAUAUGCUGGAUAAAUAUCUGGCAGAAGGCUGGACAUGAGGAUCACCCAUGUAAAUACUACC [Omei Ex6 A1b] (Eterna round: R97, puzzle: Exclusion 6) | – | – | – | 99.6 | 38.6 | –
14 | UCCUGGUCAGGAUAUUGCAGGUCGUACGCUCUGAGUCUAGGCAAGAAGGGACAUGAGGAUCACCCAUGUGGGCG [Eternabot (L1) Solution 4] (Eterna round: R97, puzzle: Exclusion 4) | – | – | – | 406 | 187 | –
15 | AGCGAAUAGGUAGGAUAUGAGAAUAGAUAGAGCUCAGAAGGACCACAUGAGGAUCACCCAUGUAAAGUCUUGAGGCUGCGUGGU [Prohibition 15 - Jieux - Exclusion NG 1] (Eterna round: R96, puzzle: Exclusion NG 1) | – | – | – | 51 | 17.5 | 14.4
16 | CAUGAUCUUCGGAUCAUGUACAUGAGGAUCACCCAUGUGACGAGUUGAUCCUCAAACAAGCUUUUUGCUCGUCUUAU [Sensor v3 - Turn-off variant 1 - 18] (puzzle: Sensor v3, turn-off variant 1) | 17 | 10.6 | 17.5 | – | – | –
17 | AGCGUGUGAGGAUAUCGAUAUUGGAAGUCUAGGUCUGAGCGCGAGAAGGCACAUGAGGAUCACCCAUGUAAGGG [Teceor] (Eterna round: R97, puzzle: Exclusion 4) | – | – | – | 516 | 375 | –
